Results taken from patent US20200140526A1 (UNIVERSITY OF ROCHESTER, published 2020).

How the values were obtained:
[1] = biological target: T1, recombinant (r)HA of pH1N1 A/California/04/2009 (Protein Sciences Corp.) (influenza A virus A/California/04/2009 …, UniProt P26140 18-529)
[2] = biological target: T1, recombinant (r)HA of pH1N1 …; remark: listed apart in the source

B1: KPF1 human monoclonal antibody (hmAb) (antibody, V domains shown)
VH: EVQLLESGGGLVQPGGSLRISCAASGSTFGDFAMSWVRQSPGRGLEWVSVTSAGGDRTYYADSVKGRFTISRDNSKNTLYLQMNSLRGEDTAMYYCARLDSSGFHYGRPGRNWGQGTLVTVSS
VL: DIQMTHSPPSLSASVGDRITITCQASQDISYYLIWYQQKPGKAPKPLIYDASNLEAGVPSRFSASGSGTDFTLTISSLQPEDLATYYCQQYKSLPYTFGQGTKLEIK
[1]
  Kd: 178 pM
[2]
  koff: 3.42e-05 s⁻¹
  kon: 192000 M⁻¹ s⁻¹
